# Source: US20040265961A1 (published 2004)
# Experiments:
# [1] = test system: T1, hKSR-2-FLAG (full-length human KSR-2 with the FLAG epitope at its carboxyl terminus)
# T1 sequence: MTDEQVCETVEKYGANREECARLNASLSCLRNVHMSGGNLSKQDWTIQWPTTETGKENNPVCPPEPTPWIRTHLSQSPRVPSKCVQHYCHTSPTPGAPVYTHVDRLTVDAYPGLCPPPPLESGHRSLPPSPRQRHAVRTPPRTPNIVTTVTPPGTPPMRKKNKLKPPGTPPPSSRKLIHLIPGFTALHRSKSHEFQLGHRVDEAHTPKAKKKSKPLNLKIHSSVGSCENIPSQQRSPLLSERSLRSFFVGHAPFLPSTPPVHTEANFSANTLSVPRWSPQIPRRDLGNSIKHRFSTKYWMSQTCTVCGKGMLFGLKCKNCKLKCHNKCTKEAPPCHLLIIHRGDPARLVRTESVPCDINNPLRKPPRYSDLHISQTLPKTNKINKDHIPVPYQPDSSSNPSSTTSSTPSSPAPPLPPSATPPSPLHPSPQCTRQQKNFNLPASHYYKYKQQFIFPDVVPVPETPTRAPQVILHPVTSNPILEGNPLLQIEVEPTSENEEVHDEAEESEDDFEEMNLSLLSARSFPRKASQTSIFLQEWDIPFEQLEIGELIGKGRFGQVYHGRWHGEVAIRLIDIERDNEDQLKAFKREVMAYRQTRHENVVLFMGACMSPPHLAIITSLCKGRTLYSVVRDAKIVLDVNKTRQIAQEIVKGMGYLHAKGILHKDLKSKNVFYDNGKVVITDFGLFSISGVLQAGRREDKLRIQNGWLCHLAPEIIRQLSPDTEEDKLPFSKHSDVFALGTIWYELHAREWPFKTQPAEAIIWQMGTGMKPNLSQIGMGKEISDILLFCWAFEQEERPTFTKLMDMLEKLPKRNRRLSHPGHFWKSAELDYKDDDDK
# [2] = biological target: T2, hKSR-2-FLAG (full-length human KSR-2 with the FLAG epitope at its carboxyl terminus)
# T2 chain: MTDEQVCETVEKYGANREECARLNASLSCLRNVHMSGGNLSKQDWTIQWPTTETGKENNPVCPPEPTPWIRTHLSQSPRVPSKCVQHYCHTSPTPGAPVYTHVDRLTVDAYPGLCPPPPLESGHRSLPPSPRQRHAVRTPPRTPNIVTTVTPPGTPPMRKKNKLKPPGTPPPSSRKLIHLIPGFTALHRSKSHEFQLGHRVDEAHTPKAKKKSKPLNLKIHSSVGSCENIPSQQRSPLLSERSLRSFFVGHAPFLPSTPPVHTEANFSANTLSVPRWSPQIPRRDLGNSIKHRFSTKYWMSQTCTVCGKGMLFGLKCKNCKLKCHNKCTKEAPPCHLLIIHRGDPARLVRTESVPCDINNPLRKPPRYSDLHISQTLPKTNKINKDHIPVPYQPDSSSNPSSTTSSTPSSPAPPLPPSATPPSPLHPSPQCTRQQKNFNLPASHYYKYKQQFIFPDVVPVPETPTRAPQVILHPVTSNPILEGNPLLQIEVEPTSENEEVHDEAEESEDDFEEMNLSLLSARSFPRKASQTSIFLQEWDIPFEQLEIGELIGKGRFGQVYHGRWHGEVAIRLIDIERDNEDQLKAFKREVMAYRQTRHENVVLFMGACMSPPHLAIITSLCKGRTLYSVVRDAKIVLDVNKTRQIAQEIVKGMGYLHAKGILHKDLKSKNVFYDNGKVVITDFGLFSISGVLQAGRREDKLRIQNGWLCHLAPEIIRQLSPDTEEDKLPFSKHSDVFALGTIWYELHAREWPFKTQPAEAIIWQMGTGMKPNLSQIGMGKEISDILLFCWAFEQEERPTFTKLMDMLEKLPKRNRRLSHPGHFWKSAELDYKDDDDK
# [3] = biological target: T3, hKSR-2-FLAG (full-length human KSR-2 with the FLAG epitope at its carboxyl terminus) (human, UniProt Q6VAB6 122-950, limits assumed); test: anti-FLAG immunoprecipitation from KSR-2-FLAG-transfected 293T lysate (about 1 mg protein), Western blot with commercial antibodies
# T3 construct: Expressed in 293T cells from pcDNA-DEST-40; Tested in cell lysates, or eluted from anti-FLAG beads with FLAG peptide for the kinase assay
# T3 sequence: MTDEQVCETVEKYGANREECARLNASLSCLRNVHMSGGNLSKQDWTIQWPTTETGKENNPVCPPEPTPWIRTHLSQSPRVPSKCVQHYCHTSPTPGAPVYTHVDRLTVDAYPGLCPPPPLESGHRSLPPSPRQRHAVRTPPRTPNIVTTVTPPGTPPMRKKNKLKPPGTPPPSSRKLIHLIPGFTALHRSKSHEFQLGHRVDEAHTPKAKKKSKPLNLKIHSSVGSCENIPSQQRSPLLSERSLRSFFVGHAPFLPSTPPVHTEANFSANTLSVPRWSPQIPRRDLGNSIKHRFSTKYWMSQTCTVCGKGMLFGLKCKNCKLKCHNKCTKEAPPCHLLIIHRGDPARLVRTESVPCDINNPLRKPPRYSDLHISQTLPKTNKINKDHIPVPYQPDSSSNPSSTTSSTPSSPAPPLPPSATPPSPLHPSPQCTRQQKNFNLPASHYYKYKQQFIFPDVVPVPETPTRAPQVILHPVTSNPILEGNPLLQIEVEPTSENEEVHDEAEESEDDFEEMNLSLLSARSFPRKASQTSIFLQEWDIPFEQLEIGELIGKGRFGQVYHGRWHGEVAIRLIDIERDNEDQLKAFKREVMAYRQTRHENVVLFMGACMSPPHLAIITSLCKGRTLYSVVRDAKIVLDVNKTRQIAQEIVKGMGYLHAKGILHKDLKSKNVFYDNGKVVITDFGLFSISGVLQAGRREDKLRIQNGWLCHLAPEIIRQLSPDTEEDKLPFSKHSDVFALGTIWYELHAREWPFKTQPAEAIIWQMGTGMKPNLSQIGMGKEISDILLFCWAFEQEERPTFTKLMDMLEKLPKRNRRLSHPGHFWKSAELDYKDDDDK
# Procedure: To identify proteins that interact with human KSR-2, 293T cells were transfected with KSR-2-FLAG as described above. Cells transfected with FLAG vector alone served as a control. Cells were lysed as described above 48 h posttransfection. Protein concentrations were determined using the BCA protein assay. Cell lysates containing approximately 1 mg protein were subjected to anti-FLAG antibody immunoprecipitation followed by electrophoresis on a 2D gel resolved in only one dimension. The proteins were then transferred to nitrocellulose membranes and probed with various commercially available antibodies (Cell Signaling Technology, Beverly, Mass.) using the MN20SL Miniblotter (Immunetics, Cambridge, Mass.).
molecule,measurement,setting,value
"Raf enzyme (Upstate Biotechnology, Inc.)","Raf kinase activity (in vitro kinase assay, 33P phosphorylation of GST-MEK1-His6)",[1],Raf kinase activity was upregulated
purified recombinant Cot/Tp12 (protein) MENLYASEEPAVYEPSLMTMCQDSNQNDERSKSLLLSGQEVPWLSSVRYGTVEDLLAFANHISNTAKHFYGQRPQESGILLNMVITPQNGRYQIDSDVLLIPWKLTYRNIGSDFIPRGAFGKVYLAQDIKTKKRMACKLIPVDQFKPSDVEIQACFRHENIAELYGAVLWGETVHLFMEAGEGGSVLEKLESCGPMREFEIIWVTKHVLKGLDFLHSKKVIHHDIKPSNIVFMSTKAVLVDFGLSVQMTEDVYFPKDLRGTEIYMSPEVILCRGHSTKADIYSLGATLIHMQTGTPPWVKRYPRSAYPSYLYIIHKQAPPLEDIADDCSPGMRELIEASLERNPNHRPRAADLLKHEALNPPREDQPR,"Cot/Tp12 kinase activity (in vitro kinase assay, 33P phosphorylation of GST-MEK1-His6)",[2],KSR-2 reduced Cot/Tp12 kinase activity in a dose-dependent manner
"P.SEK1 (enzyme, UniProt P45985 2-399, looked up, phosphorylated (sites not given), Endogenous protein of 293T cells, probed with a commercial antibody; also called phosphorylated SEK1) AAPSPSGGGGSGGGSGSGTPGPVGSPAPGHPAVSSMQGKRKALKLNFANPPFKSTARFTLNPNPTGVQNPHIERLRTHSIESSGKLKISPEQHWDFTAEDLKDLGEIGRGAYGSVNKMVHKPSGQIMAVKRIRSTVDEKEQKQLLMDLDVVMRSSDCPYIVQFYGALFREGDCWICMELMSTSFDKFYKYVYSVLDDVIPEEILGKITLATVKALNHLKENLKIIHRDIKPSNILLDRSGNIKLCDFGISGQLVDSIAKTRDAGCRPYMAPERIDPSASRQGYDVRSDVWSLGITLYELATGRFPYPKWNSVFDQLTQVVKGDPPQLSNSEEREFSPSFINFVNLCLTKDESKRPKYKELLKHPFILMYEERAVEVACYVCKILDQMPATPSSPMYVD",binding result,[3],no binding
